Measured values from US10618965 (dated 2020).

B1: IL6R-PD081 (antibody)
chain 1: QVQLQESGPGLVKPSETLSLTCAVSGHSISHDHAWSWVRQPPGEGLEWIGFISYSGITNYNPSLQGRVTISRDNSKNTLYLQMNSLRAEDTAVYYCARSLARTTAMDYWGEGTLVTVSSASTKGPSVFPLAPSSKSTSGGTAALGCLVKDYFPEPVTVSWNSGALTSGVHTFPAVLQSSGLYSLSSVVTVPSSSLGTQTYICNVNHKPSNTKVDKKVEPKSCDKTHTCPPCPAPELLGEDSVFLFPPKPKDTLYISRTPEVTCVVVDVSHEDPEVKFNWYVDGVEVHNAKTKPREEQYNSTYRVVSVLTVLHQDWLNGKEYKCKVSNKALPAPIEKTISKAKGQPREPQVYTLPPSRDELTKNQVSLTCLVKGFYPSDIAVEWESNGQPENNYKTTPPVLDSDGSFFLYSKLTVDKSRWQQGNVFSCSVMHEALHYHYTQKSLSLSP
chain 2: DIQMTQSPSSLSASVGDRVTITCRASQDISSYLNWYQQKPGKAPKLLIYYTSRLHSGVPSRFSGSGSGTDFTFTISSLQPEDIATYYCQQGNTLPYTFGQGTKVEIK
B2: F1325 (antibody)
chain 1: QVQLQESGPGLVKPSETLSLTCAVSGHSISHDHAWSWVRQPPGEGLEWIGFISYSGITNYNPSLQGRVTISRDNSKNTLYLQMNSLRAEDTAVYYCARSLARTTAMDYWGEGTLVTVSSASTKGPSVFPLAPSSKSTSGGTAALGCLVKDYFPEPVTVSWNSGALTSGVHTFPAVLQSSGLYSLSSVVTVPSSSLGTQTYICNVNHKPSNTKVDKKVEPKSCDKTHTCPPCPAPEAAGGPSVFLFPPKPKDTLYISRTPEVTCVVVDVSHEDPEVKFNWYVDGVEVHNAKTKPREEQYASTYRVVSVLTVLHQDWLNGKEYKCKVSNKALPAPIEKTISKAKGQPREPQVYTLPPSRDELTKNQVSLTCLVKGFYPSDIAVEWESNGQPENNYKTTPPVLDSDGSFFLYSKLTVDKSRWQQGNVFSCSVMHEALHYHVTQKSLSLSP
chain 2: not shown
B3: F1356 (antibody)
chain 1: QVQLQESGPGLVKPSETLSLTCAVSGHSISHDHAWSWVRQPPGEGLEWIGFISYSGITNYNPSLQGRVTISRDNSKNTLYLQMNSLRAEDTAVYYCARSLARTTAMDYWGEGTLVTVSSASTKGPSVFPLAPSSKSTSGGTAALGCLVKDYFPEPVTVSWNSGALTSGVHTFPAVLQSSGLYSLSSVVTVPSSSLGTQTYICNVNHKPSNTKVDKKVEPKSCDKTHTCPPCPAPELLRGPSVFLFPPKPKDTLYISRTPEVTCVVVDVSHEDPEVKFNWYVDGVEVHNAKTKPREEQYNSTYRVVSVLTVLHQDWLNGKEYKCKVSNKARPAPIEKTISKAKGQPREPQVYTLPPSRDELTKNQVSLTCLVKGFYPSDIAVEWESNGQPENNYKTTPPVLDSDGSFFLYSKLTVDKSRWQQGNVFSCSVMHEALHYHVTQKSLSLSP
chain 2: not shown
B4: F938 (antibody)
chain 1: QVQLQESGPGLVKPSETLSLTCAVSGHSISHDHAWSWVRQPPGEGLEWIGFISYSGITNYNPSLQGRVTISRDNSKNTLYLQMNSLRAEDTAVYYCARSLARTTAMDYWGEGTLVTVSSASTKGPSVFPLAPSSKSTSGGTAALGCLVKDYFPEPVTVSWNSGALTSGVHTFPAVLQSSGLYSLSSVVTVPSSSLGTQTYICNVNHKPSNTKVDKKVEPKSCDKTHTCPPCPAPELKGGPKVFLFPPKPKDTLYISRTPEVTCVVVDVSHEDPEVKFNWYVDGVEVHNAKTKPREEQYNSTYRVVSVLTVLHQDWLNGKEYKCKVSNKALPAPIEKTISKAKGQPREPQVYTLPPSRDELTKNQVSLTCLVKGFYPSDIAVEWESNGQPENNYKTTPPVLDSDGSFFLYSKLTVDKSRWQQGNVFSCSVMHEALHYHVTQKSLSLSP
chain 2: not shown
B5: F1317 (antibody)
chain 1: QVQLQESGPGLVKPSETLSLTCAVSGHSISHDHAWSWVRQPPGEGLEWIGFISYSGITNYNPSLQGRVTISRDNSKNTLYLQMNSLRAEDTAVYYCARSLARTTAMDYWGEGTLVTVSSASTKGPSVFPLAPSSKSTSGGTAALGCLVKDYFPEPVTVSWNSGALTSGVHTFPAVLQSSGLYSLSSVVTVPSSSLGTQTYICNVNHKPSNTKVDKKVEPKSCDKTHTCPPCPAPELLGGPKVFLFPPKPKDTLYISRTPEVTCVVVDVSHEDPEVKFNWYVDGVEVHNAKTKPREEQYNSTYRVVSVLTVLHQDWLNGKEYKCKVSNKALKAPIEKTISKAKGQPREPQVYTLPPSRDELTKNQVSLTCLVKGFYPSDIAVEWESNGQPENNYKTTPPVLDSDGSFFLYSKLTVDKSRWQQGNVFSCSVMHEALHYHVTQKSLSLSP
chain 2: not shown
B6: F1333 (antibody)
chain 1: QVQLQESGPGLVKPSETLSLTCAVSGHSISHDHAWSWVRQPPGEGLEWIGFISYSGITNYNPSLQGRVTISRDNSKNTLYLQMNSLRAEDTAVYYCARSLARTTAMDYWGEGTLVTVSSASTKGPSVFPLAPSSKSTSGGTAALGCLVKDYFPEPVTVSWNSGALTSGVHTFPAVLQSSGLYSLSSVVTVPSSSLGTQTYICNVNHKPSNTKVDKKVEPKSCDKTHTCPPCPAPELRRGPKVFLFPPKPKDTLYISRTPEVTCVVVDVSHEDPEVKFNWYVDGVEVHNAKTKPREEQYNSTYRVVSVLTVLHQDWLNGKEYKCKVSNKALPAPIEKTISKAKGQPREPQVYTLPPSRDELTKNQVSLTCLVKGFYPSDIAVEWESNGQPENNYKTTPPVLDSDGSFFLYSKLTVDKSRWQQGNVFSCSVMHEALHYHVTQKSLSLSP
chain 2: not shown
B7: F890 (antibody)
chain 1: QVQLQESGPGLVKPSETLSLTCAVSGHSISHDHAWSWVRQPPGEGLEWIGFISYSGITNYNPSLQGRVTISRDNSKNTLYLQMNSLRAEDTAVYYCARSLARTTAMDYWGEGTLVTVSSASTKGPSVFPLAPSSKSTSGGTAALGCLVKDYFPEPVTVSWNSGALTSGVHTFPAVLQSSGLYSLSSVVTVPSSSLGTQTYICNVNHKPSNTKVDKKVEPKSCDKTHTCPPCPAPELLGGPSVFLFPPKPKDTLYISRTPEVTCVVVDVSHEDPEVKFNWYVDGVEVHNAKTKPREEQYNSTYRVVSVLTVLHQDWLNGKEYKCKVSNKALPAPIEKTISKAKGQPREPQVYTLPPSRDELTKNQVSLTCLVKGFYPSDIAVEWESNGQPENNYKTTPPVLDSDGSFFLYSKLTVDKSRWQQGNVFSCSVMHEALHYHVTQKSLSLSP
chain 2: not shown
B8: F1316 (antibody)
chain 1: QVQLQESGPGLVKPSETLSLTCAVSGHSISHDHAWSWVRQPPGEGLEWIGFISYSGITNYNPSLQGRVTISRDNSKNTLYLQMNSLRAEDTAVYYCARSLARTTAMDYWGEGTLVTVSSASTKGPSVFPLAPSSKSTSGGTAALGCLVKDYFPEPVTVSWNSGALTSGVHTFPAVLQSSGLYSLSSVVTVPSSSLGTQTYICNVNHKPSNTKVDKKVEPKSCDKTHTCPPCPAPELLGRPKVFLFPPKPKDTLYISRTPEVTCVVVDVSHEDPEVKFNWYVDGVEVHNAKTKPREEQYNSTYRVVSVLTVLHQDWLNGKEYKCKVSNKALPAPIEKTISKAKGQPREPQVYTLPPSRDELTKNQVSLTCLVKGFYPSDIAVEWESNGQPENNYKTTPPVLDSDGSFFLYSKLTVDKSRWQQGNVFSCSVMHEALHYHVTQKSLSLSP
chain 2: not shown
B9: F1324 (antibody)
chain 1: QVQLQESGPGLVKPSETLSLTCAVSGHSISHDHAWSWVRQPPGEGLEWIGFISYSGITNYNPSLQGRVTISRDNSKNTLYLQMNSLRAEDTAVYYCARSLARTTAMDYWGEGTLVTVSSASTKGPSVFPLAPSSKSTSGGTAALGCLVKDYFPEPVTVSWNSGALTSGVHTFPAVLQSSGLYSLSSVVTVPSSSLGTQTYICNVNHKPSNTKVDKKVEPKSCDKTHTCPPCPAPEAAGGPSVFLFPPKPKDTLYISRTPEVTCVVVDVSHEDPEVKFNWYVDGVEVHNAKTKPREEQYNSTYRVVSVLTVLHQDWLNGKEYKCKVSNKALPAPIEKTISKAKGQPREPQVYTLPPSRDELTKNQVSLTCLVKGFYPSDIAVEWESNGQPENNYKTTPPVLDSDGSFFLYSKLTVDKSRWQQGNVFSCSVMHEALHYHVTQKSLSLSP
chain 2: not shown
B10: F1318 (antibody)
chain 1: QVQLQESGPGLVKPSETLSLTCAVSGHSISHDHAWSWVRQPPGEGLEWIGFISYSGITNYNPSLQGRVTISRDNSKNTLYLQMNSLRAEDTAVYYCARSLARTTAMDYWGEGTLVTVSSASTKGPSVFPLAPSSKSTSGGTAALGCLVKDYFPEPVTVSWNSGALTSGVHTFPAVLQSSGLYSLSSVVTVPSSSLGTQTYICNVNHKPSNTKVDKKVEPKSCDKTHTCPPCPAPELLGGPKVFLFPPKPKDTLYISRTPEVTCVVVDVSHEDPEVKFNWYVDGVEVHNAKTKPREEQYNSTYRVVSVLTVLHQDWLNGKEYKCKVSNKALRAPIEKTISKAKGQPREPQVYTLPPSRDELTKNQVSLTCLVKGFYPSDIAVEWESNGQPENNYKTTPPVLDSDGSFFLYSKLTVDKSRWQQGNVFSCSVMHEALHYHVTQKSLSLSP
chain 2: not shown
B11: F1315 (antibody)
chain 1: QVQLQESGPGLVKPSETLSLTCAVSGHSISHDHAWSWVRQPPGEGLEWIGFISYSGITNYNPSLQGRVTISRDNSKNTLYLQMNSLRAEDTAVYYCARSLARTTAMDYWGEGTLVTVSSASTKGPSVFPLAPSSKSTSGGTAALGCLVKDYFPEPVTVSWNSGALTSGVHTFPAVLQSSGLYSLSSVVTVPSSSLGTQTYICNVNHKPSNTKVDKKVEPKSCDKTHTCPPCPAPELLGKPKVFLFPPKPKDTLYISRTPEVTCVVVDVSHEDPEVKFNWYVDGVEVHNAKTKPREEQYNSTYRVVSVLTVLHQDWLNGKEYKCKVSNKALPAPIEKTISKAKGQPREPQVYTLPPSRDELTKNQVSLTCLVKGFYPSDIAVEWESNGQPENNYKTTPPVLDSDGSFFLYSKLTVDKSRWQQGNVFSCSVMHEALHYHVTQKSLSLSP
chain 2: not shown

Biological target: T1, human FcgRIIb (human)
T1 chain: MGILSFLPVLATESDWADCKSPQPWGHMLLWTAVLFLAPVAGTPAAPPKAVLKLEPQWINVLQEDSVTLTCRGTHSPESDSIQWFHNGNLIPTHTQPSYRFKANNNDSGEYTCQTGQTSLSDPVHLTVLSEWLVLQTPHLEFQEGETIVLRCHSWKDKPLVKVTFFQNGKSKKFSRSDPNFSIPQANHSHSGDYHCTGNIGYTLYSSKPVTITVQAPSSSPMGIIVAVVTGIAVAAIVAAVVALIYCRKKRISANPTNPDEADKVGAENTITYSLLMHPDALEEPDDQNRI
Assay: SPR

Question: For B1, which Kd is on record?
Answer: 3600 nM

Biological target: T2, human FcgRIIa(R) (human)
T2 chain: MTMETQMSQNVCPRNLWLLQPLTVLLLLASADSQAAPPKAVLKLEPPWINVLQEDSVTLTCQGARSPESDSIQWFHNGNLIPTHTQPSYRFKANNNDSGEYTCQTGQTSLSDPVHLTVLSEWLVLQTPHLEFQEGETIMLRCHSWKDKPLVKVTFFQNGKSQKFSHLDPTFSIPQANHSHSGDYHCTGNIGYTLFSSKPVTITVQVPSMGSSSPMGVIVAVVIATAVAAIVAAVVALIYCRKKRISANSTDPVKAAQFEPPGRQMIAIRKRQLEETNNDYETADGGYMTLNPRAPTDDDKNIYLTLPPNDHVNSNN
Assay: SPR

Question: Which Kd does the source give for B1 here?
Answer: 38000 nM

biological target: human FcgRIa (human); assay: SPR
Sequence (chain, as listed by the source): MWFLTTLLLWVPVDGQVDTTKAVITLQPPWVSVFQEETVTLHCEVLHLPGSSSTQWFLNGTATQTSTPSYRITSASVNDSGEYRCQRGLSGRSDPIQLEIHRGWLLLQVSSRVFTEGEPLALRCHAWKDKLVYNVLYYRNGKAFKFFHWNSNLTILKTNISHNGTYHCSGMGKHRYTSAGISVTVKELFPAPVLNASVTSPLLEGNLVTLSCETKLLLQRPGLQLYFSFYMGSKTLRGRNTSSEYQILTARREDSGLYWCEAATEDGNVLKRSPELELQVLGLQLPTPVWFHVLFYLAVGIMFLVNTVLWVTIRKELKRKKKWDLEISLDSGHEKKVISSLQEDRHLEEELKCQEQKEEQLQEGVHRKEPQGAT

Question: With B1 as the binder, how does the Kd read?
Answer: 340 nM

biological target: human FcRn (with beta2-microglobulin) (human); assay: SPR, pH 7.0
Sequence (chain, as listed by the source, chain 1 of 2): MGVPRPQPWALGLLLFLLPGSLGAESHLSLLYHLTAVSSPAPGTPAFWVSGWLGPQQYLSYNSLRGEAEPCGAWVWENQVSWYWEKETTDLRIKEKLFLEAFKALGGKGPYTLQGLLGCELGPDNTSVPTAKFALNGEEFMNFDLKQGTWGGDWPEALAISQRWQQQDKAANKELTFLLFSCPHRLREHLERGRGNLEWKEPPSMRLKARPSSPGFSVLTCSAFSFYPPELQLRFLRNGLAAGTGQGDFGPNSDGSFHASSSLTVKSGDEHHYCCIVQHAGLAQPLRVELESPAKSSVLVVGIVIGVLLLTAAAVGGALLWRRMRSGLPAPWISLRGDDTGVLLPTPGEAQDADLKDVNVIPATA
Sequence (chain, as listed by the source, chain 2 of 2): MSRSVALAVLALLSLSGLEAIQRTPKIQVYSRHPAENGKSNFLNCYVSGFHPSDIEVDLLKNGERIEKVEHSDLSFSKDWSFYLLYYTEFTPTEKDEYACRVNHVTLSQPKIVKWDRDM

Question: For B2, which Kd is on record?
Answer: 213 nM

Question: With B3 as the binder, how does the Kd read?
Answer: 158 nM

Question: Which Kd does the source give for B4 here?
Answer: 161 nM

Question: For B5, which Kd is on record?
Answer: 138 nM

Question: For B6, which Kd is on record?
Answer: 123 nM

Question: Which Kd does the source give for B7 here?
Answer: 107 nM

Question: B8 was tested. Which Kd did it give?
Answer: 149 nM

Question: With B9 as the binder, how does the Kd read?
Answer: 132 nM

Question: With B10 as the binder, how does the Kd read?
Answer: 143 nM

Question: With B11 as the binder, how does the Kd read?
Answer: 152 nM
